Biological target: T1, GST (UniProt P08515 1-218 = GST)
T1 construct: Control protein; also called GST itself
Assay: Far-Western blot with radioactively labeled probe
Source text: A bacterially expressed GST-GRB2 fusion protein containing a 5 amino acid RRASV heart muscle kinase site was purified and radioactively labeled with [³²P]ATP.

T1 sequence (P08515 whole entry): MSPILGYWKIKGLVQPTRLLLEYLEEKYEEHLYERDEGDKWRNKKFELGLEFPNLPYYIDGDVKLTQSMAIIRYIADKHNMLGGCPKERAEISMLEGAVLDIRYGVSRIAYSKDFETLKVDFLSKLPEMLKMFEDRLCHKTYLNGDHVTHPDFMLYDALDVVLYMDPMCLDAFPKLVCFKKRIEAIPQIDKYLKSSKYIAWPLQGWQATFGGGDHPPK

binding result: no binding
B1: p85 SH3 domain (amino acids 1-81) (other, UniProt P26450 1-81, looked up)
chain: MSAEGYQYRALYDYKKEREEDIDLHLGDILTVNKGSLVALGFSDGQEARPEDIGWLNGYNETTGERGDFPGTYVEYIGRKR
modifications: radioactively labeled
notes: range 1-81
